Assay results: patent publication US20120282177A1 (published 2012)

B1: ROR1_A7 (Fab, V domains shown)
VH: EVMLVESGGGLVKPGGSLKISCAASGFSFSSYAMSWVRQTPEKSLEWVAAININRGTPYYPDTVKGRFTISRDNAKNTLYLQMSSLRSEDTALYYCVRHRNSNNDYAMDYWGQGTSVTVSS
VL: DIVMTQSPSSMYTSLGERVTITCKASQDINSYLSWFQQKPGKSPKTLIYRANRLIDGVPSRFSGSGSGQDYSLTISSLEYEDMGIYYCLQYDEFPFTFGSGTKLEIKR
notes: The entries are called 'variable region' but as printed hold leader, V domain, constant domain and tag
B2: ROR1_A6 (Fab, V domains shown)
VH: EVMLVESGGGLVKPGGSLKLSCAASGFTFSPYAMSWVRQTPEKRLEWVAAINSNRGTTYYPDTVKGRFTISRDNAKNTLYLQMSSLRSEDTAFYYCVRHRYNNYDYAMDYWGQGTSVTVSS
VL: DIVMSQSPSSMYASLGERVTITCKASQDINSYLSWFQQKPGKSPKTLTYRANRLVEGVPSRFSGSGSGQDYSLTISSLEYEDMGIYYCLQYDEFPYTFGGGTKLEIKR
notes: as for B1
B3: ROR1_A3 (Fab, V domains shown)
VH: DVMLVESGGGLVKPGGSLKLSCAASGFTFSSYAMSWVRQTPEKRLEWVAAININRGTTYYSDTVKGRFTISRDNAKNTLYLQLSSLRSEDTALYYCSRHRYSDYDYAMDYWGQGTSVTVSS
VL: DIQLTQSPSSMYASLGERVTIACKASQDINSYLSWFQQKPGKSPKTLIHRANRLVDGVPSRFSGSGSGQDYSLTISSLEYEDIGIYYCLQYDEFPYTFGGGTKLEIKR
notes: as for B1
B4: ROR1_A2 (Fab, V domains shown)
VH: EVQLLETGGGLVKPGGSLKLSCAASGFTFSTYAMSWVRQTPEKRLEWVAGINSNRGTTYYPDTVKGRFTISRDNAKNTLSLQMTSLRSEDTALYYCVRHRYTNYDYAMDYWGQGTSVTVSS
VL: DIKMTQSPSSMYASLGERVTITCKASQDINSYLSWFQQKPGKSPKTLIYRANRLVDGVPSRFSGSGSGQDYSLTISSLEYEDMGIYYCLQYDEFPYTFGGGTKLEIKR
notes: as for B1
B5: ROR1_A4 (Fab, V domains shown)
VH: EVKLVESGGGLVKPGGSLKLSCAASGFTFSNYGMSWVRQTPERRLEWVAAMNNNGASTYYPDTVKGRFTISRDNAKNTLYLQMSSLRSEDTALYFCVRHNNYVDYAMDYWGQGTSVTVSS
VL: DILLTQSPSSMYTSLGERVTITCKASQDINSYLSWFQQKPGKSPKTLIYRANKLVDGVPSRFSGSGSGQDYSLTISSLESEDMGIYYCLQYDEFPYTFGGGTKLEIKR
notes: as for B1
B6: ROR1_A9 (Fab, V domains shown)
VH: EVQLVETGGDLVKPGGSLKLSCVASGFTFSSNAMSWVRQTPEKRLEWVAAINSKGGGTYYPDTVRGRFTISRDNAKNTLYLQVTSLRSEDTALYYCVSHGDNKYFYAMDYWGQGTSVTVSS
VL: NIVMTQSPSSMYASLGERVTITCKASQDINSYLSWFQQKPGKSPKTLIYRANRLVDGVPSRFSGSGSGQDYSLTISSLEYEDMGIYYCLQYDEFPYTFGGGTKLEIKR
notes: as for B1
B7: ROR1_A5 (Fab, V domains shown)
VH: EVKLVESGGGLVKPGGSLKLSCAASGFTFSNYDMSWVRQSPEKRLEWVAAINRKGHSTYYPDTVQGRFTISRDNAKNTLYLQMSSLRSEDTALYYCVRLDDNYYFFDYWGQGTTLTVSS
VL: DIKMTQSPSSMYASLGERVTITCKASQDINSYLSWFQQKPGKSPKTLIYRAKRLIDGVPSRFSGSGSGQDYSLTISSLEYEDMGIYYCLQYDEFPYTFGGGTKLEIKR
notes: as for B1
B8: ROR1_A1 (Fab, V domains shown)
VH: EVKLVESGGGLVRPGGSLKLSCAVSGFTFSSYAMSWVRQTPEKRLEWVAAINFNRGTTYYSDTVKGRFTISRDNAKNTLYLQLSSLRSEDTAFYYCSRHRYSDYDYAMDYWGQGTSVTVSS
VL: DIVMSQSPSSMYASLGERVTITCKASQDINSYLNWFQQKPGKSPKTLIYRANRLVDGVPSRFSGSGSGHDYFLTIRSLEYEDMGIYYCLQYDEFPYTFGGGTKLEIKR
B9: ROR1_A13 (Fab, V domains shown)
VH: EVQLVETGGGLVKPGGSLKLSCAASGFTFSSYAMSWIRQTPEKRLEWVAGINSNRGTTYYPDTVKGRFTISRDNAKNTLYLQMNSLRSEDSALYYCVRHRYIDYDYAMDYWGQGTSVTVSS
VL: NIVMTQSPSSMYASLGERVTIICKSSQDINSYLSWFQQKPGKSPKTLIFRANRLVDGVPSRFSGSGSGQDYSLTISSLEYEDMGIYYCLQYDEFPYTFGGGTKLEVKR
notes: as for B1
B10: ROR1_A12 (Fab, V domains shown)
VH: EVQLVESGGGLVKPGGSLKLSCAASGFTFSSYAMSWVRQTPEKRLEWVAAINSNRGTTYYSDTVKGRFTISRDNAKNTLYLQMSSLRSEDTAFYYCTRHRYSDYDYAMDYWGQGTSVTVSS
VL: DIKMTQSPSSMYASLGERVTITCKASQDINSYLSWFQQKPGKSPMTLTHRANRLVDGVPSRFSGSGSGQDYSLTISSLENEDMGIYYCLQYDEFPYTFGGGTKLEIKR
notes: as for B1
B11: ROR1_A10 (Fab, V domains shown)
VH: EVQLVETGGGLVKPGGSLKLSCAASGFAFSSYAMSWVRQTPEKRLEWVAAINNRGGGTYYPDTVRGRFTISRDNAKNTLYLQMSSLRSADTALYYCVRHDNLNYDYAMDSWGQGTSVTVSS
VL: NIVMTQSPSSMYASLGERVTITCKASQDIYSYLSWFQQKPGKSPKTLIYRANRLVDGVPSRFSGSGSGQDYSLTISSLDYEDVGIYYCLQYDEFPYTFGSGTKLEIER
notes: as for B1
B12: ROR1_A14 (Fab, V domains shown)
VH: QVQLKQSGAELVKPGASVKISCKATGYTFSSYWIEWVKERPGHGLEWIGEILPGIGNTNYNEKFKGKATFTADLSSKTAYMQLSSLTSEDSAVYYCASGGYSTVYWYFDVWGAGTTVTVSS
VL: DVVMSQSPSSLAVSTGEKVTLSCKSSQSLLNSRTRKNYLAWYQQKPGQSPKLLIYWTSTRESGVPNRFTGSGSGTDFTLTISSVQAEDLAVYYCKQSYDLPWTFGGGTKLEIKR
notes: as for B1

These binders were tested against T1, Tyrosine-protein kinase transmembrane receptor ROR1 (Long Isoform), human, on the cell surface (human, UniProt Q01973 30-937) (assay: flow cytometry on A549 cells (FIG. 5a)).
T1 construct: Endogenous ROR1 on the human cell lines A549, HT29, H69 and HEK293 and on CLL cells from a patient; also called cell-surface human ROR1; full-length ROR1
Description: (§1) The specificity of antibodies against the ROR1 selected in Example 6 was tested by flow cytometry. To test the ability of the antibodies to bind to the cell surface ROR1 protein, the antibodies were incubated with the ROR1-expressing cells, A549, from human lung adenocarinoma. Cells were washed in FACS buffer (DPBS, 2% FBS), centrifuged and resuspended in 100 μl of the diluted primary ROR1 antibody (also diluted in FACS buffer). The antibody-A549 complex was incubated on ice for 60 min and then washed twice with FACS buffer as described above. The cell-antibody pellet was resuspended in 100 μl of the diluted secondary antibody (also diluted in FACS buffer) and incubated on ice for 60 min on ice. The pellet was washed as before and resuspended in 200 μl FACS buffer. The samples were loaded onto the BD FACScanto II flow sytometer and the data analyzed using the BD FACSdiva software. The binding of ROR1_A3, ROR1_A1, ROR1_A8 and ROR1_A14 to ROR1 expressed on A549, H69 (human small cell lung carcinoma) and HT29 (colon carcinoma) cells were also analysed using flow cytometry.

T1 sequence (Q01973 30-937 limits assumed): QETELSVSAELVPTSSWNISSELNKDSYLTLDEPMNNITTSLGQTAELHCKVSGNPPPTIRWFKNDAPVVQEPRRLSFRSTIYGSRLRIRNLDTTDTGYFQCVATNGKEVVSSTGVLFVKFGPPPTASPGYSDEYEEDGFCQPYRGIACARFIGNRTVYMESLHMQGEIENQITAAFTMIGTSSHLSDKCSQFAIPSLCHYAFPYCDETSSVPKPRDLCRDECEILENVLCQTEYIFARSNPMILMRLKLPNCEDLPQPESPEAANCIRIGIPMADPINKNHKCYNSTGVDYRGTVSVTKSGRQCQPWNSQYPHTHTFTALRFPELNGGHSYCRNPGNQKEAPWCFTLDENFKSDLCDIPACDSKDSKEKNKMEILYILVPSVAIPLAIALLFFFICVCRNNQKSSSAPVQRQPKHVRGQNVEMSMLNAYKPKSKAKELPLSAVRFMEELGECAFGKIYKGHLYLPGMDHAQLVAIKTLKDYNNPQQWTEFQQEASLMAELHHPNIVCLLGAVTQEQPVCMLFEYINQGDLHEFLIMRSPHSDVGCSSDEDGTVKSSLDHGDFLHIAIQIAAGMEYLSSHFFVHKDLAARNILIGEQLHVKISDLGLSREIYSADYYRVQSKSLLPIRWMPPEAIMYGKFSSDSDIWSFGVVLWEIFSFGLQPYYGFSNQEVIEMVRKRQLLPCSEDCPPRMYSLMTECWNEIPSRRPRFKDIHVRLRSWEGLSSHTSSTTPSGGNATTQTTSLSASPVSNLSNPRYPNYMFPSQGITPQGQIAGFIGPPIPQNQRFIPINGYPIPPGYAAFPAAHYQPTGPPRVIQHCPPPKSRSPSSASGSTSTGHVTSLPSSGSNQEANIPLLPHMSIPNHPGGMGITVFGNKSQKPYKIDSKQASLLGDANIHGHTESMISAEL

Binding result, binds:
B1
B2
B3
B4
B5
B6
B7

These binders were tested against T1, Tyrosine-protein kinase transmembrane … (assay: flow cytometry, legend of FIGS. 5a and 5b (members and cell lines per antibody named in paragraph 474)).
Description: as §1

Binding result, binds:
B8
B9
B10
B11
B12
